According to patent publication US20150274841A1:

Tests used:
[1] = molecular target: human plasma kallikrein (PKal) (human), P03952; test: Ki,app; Fab inhibition of PKal cleavage of a substrate peptide, Morrison fit; conditions: remark: other sources report otherwise
[2] = molecular target: human plasma kallikrein (PKal) (human), P03952; test: enzyme inhibition assay: rate (F/s) of substrate peptide cleavage by PKal against [Fab] (nM), fitted to the Morrison equation; apparent Ki (Ki,app); Table 3 prints 2.5 nM; conditions: remark: other sources report otherwise

Chain of human plasma kallikrein (PKal) (human), P03952 (P03952 20-638 limits assumed): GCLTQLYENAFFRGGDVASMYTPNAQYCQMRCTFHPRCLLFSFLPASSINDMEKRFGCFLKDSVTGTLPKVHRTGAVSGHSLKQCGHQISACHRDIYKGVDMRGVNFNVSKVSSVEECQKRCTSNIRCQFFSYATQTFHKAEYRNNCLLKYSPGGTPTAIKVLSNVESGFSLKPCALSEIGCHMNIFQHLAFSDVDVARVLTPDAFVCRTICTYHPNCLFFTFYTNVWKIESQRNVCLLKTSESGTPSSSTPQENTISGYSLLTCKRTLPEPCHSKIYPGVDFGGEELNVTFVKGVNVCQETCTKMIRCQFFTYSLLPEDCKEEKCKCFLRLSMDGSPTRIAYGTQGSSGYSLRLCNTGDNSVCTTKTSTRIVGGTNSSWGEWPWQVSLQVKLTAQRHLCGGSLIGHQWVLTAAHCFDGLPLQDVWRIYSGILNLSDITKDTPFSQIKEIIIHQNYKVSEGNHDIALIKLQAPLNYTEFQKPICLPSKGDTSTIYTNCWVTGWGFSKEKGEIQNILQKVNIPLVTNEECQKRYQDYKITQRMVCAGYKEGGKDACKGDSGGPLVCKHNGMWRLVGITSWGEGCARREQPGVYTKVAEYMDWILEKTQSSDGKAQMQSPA

B1: M0162-A04 (Fab, V domains shown)
VH: EVQLLESGGGLVQPGGSLRLSCAASGFTFSHYIMMWVRQAPGKGLEWVSGIYSSGGITVYADSVKGRFTISRDNSKNTLYLQMNSLRAEDTAVYYCAYRRTGIPRRDAFDIWGQGTMVTVSS
VL: DIQMTQSPSTLSASVGDRVTITCRASQSISSWLAWYQQKPGKAPNLLIYKASTLESGVPSRFSGSGSGTEFTLTISSLQPDDFATYYCQQYNTYWTFGQGTKVEIK
Ki [1]: 2.5 nM
Ki [2]: 6.54 nM
